# Experimental data as given in patent US20240034774A1 (Gilead, published 2024).
# What was measured:
# BSA = BSA (UniProt P02769 25-607); assay: single-point ELISA, BSA control
# gp120 Bal = gp120 Bal (HIV (Bal)); assay: single-point ELISA at EC50 conc. of A-1
# gp120 SHIV SF162 P3 = gp120 SHIV SF162 P3 (SHIV SF162 P3); assay: single-point ELISA at EC50 conc. of A-1
# gp120 CAAN = gp120 CAAN (HIV (CAAN)); assay: single-point ELISA at EC50 conc. of A-1
Binder,ELISA A450 (BSA) [A450],ELISA A450 (gp120 Bal) [A450],ELISA A450 (gp120 SHIV SF162 P3) [A450],ELISA A450 (gp120 CAAN) [A450]
"1.12.17-1 (antibody, human IgG1, kappa, V domains shown) VH: QVQLLQSGAAVTKPGASVRVSCEASGYNIRDYFIHWVRQAPGQGLQWVGWINPKTGQPNNPRQFQGRVSLTRHASWDFDTFSFYMDLKALRSDDTAVYFCARQRSDYWDFDVWGSGTQVTVSS VL: DIQMTQSPSSLSASVGDTVTITCQANGYLNWYQQRRGKAPKLLIYDGSKLERGVPSRFSGRRWGQEYNLTINNLQPEDIATYFCQVYEFFGPGTRLDLKR",0.06,0.9,0.75,0.84
"1.13.15-1 (antibody, human IgG1, kappa) heavy: QVQLLQSGAAVTKPGASVRVSCEASGYNIRDYFMHWVRQAPGQGLQWVGWINPKTGQPNNPRQFQGRVSLTRHASWDFDTFSFYMDLKALRSDDTAVYFCARQRSDYWDFDVWGSGTQVTVSSASTKGPSVFPLAPSSKSTSGGTAALGCLVKDYFPEPVTVSWNSGALTSGVHTFPAVLQSSGLYSLSSVVTVPSSSLGTQTYICNVNHKPSNTKVDKKVEPKSCDKTHTCPPCPAPELLAGPDVFLFPPKPKDTLMISRTPEVTCVVVDVSHEDPEVKFNWYVDGVEVHNAKTKPREEQYNSTYRVVSVLTVLHQDWLNGKEYKCKVSNKALPLPEEKTISKAKGQPREPQVYTLPPSREEMTKNQVSLTCLVKGFYPSDIAVEWESNGQPENNYKTTPPVLDSDGSFFLYSKLTVDKSRWQQGNVFSCSVLHEALHSHYTQKSLSLSPGK light: DIQMTQSPSSLSASVGDTVTITCQANGYLNWYQQRRGKAPKLLIYDGSKLERGVPSRFSGRRWGQEYNLTINNLQPEDIATYFCQVYEFFVPGTRLDLKRTVAAPSVFIFPPSDEQLKSGTASVVCLLNNFYPREAKVQWKVDNALQSGNSQESVTEQDSKDSTYSLSSTLTLSKADYEKHKVYACEVTHQGLSSPVTKSFNRGEC",0.06,0.7,0.52,0.6
"1.16.1-1 (antibody, human IgG1, kappa) heavy: QVQLLQSGAAVTKPGASVRVSCEASGYNIRDYFIHWWRQAPGQGLQWVGWINPKGGQPNNPRQFQGRVSLTRHASWDFDTFSFYMDLKALRSDDTAVYFCARQRSDYWDFDVWGSGTQVTVSSASTKGPSVFPLAPSSKSTSGGTAALGCLVKDYFPEPVTVSWNSGALTSGVHTFPAVLQSSGLYSLSSVVTVPSSSLGTQTYICNVNHKPSNTKVDKKVEPKSCDKTHTCPPCPAPELLAGPDVFLFPPKPKDTLMISRTPEVTCVVVDVSHEDPEVKFNWYVDGVEVHNAKTKPREEQYNSTYRVVSVLTVLHQDWLNGKEYKCKVSNKALPLPEEKTISKAKGQPREPQVYTLPPSREEMTKNQVSLTCLVKGFYPSDIAVEWESNGQPENNYKTTPPVLDSDGSFFLYSKLTVDKSRWQQGNVFSCSVLHEALHSHYTQKSLSLSPGK light: DIQMTQSPSSLSASVGDTVTITCQANGYLNWYQQRRGKAPKLLIYDGSKLERGVPSRFSGRRWGQEYNLTINNLQPEDIATYFCQVYEFVVPGTRLDLKRTVAAPSVFIFPPSDEQLKSGTASVVCLLNNFYPREAKVQWKVDNALQSGNSQESVTEQDSKDSTYSLSSTLTLSKADYEKHKVYACEVTHQGLSSPVTKSFNRGEC",0.07,0.92,0.9,0.87
"1.17.1-1 (antibody, human IgG1, kappa) heavy: QVQLLQSGAAVTKPGASVRVSCEASGYNIRDYFIHWWRQAPGQGLQWVGWINPKAGQPNNPRQFQGRVSLTRHASWDFDTFSFYMDLKALRSDDTAVYFCARQRSDYWDFDVWGSGTQVTVSSASTKGPSVFPLAPSSKSTSGGTAALGCLVKDYFPEPVTVSWNSGALTSGVHTFPAVLQSSGLYSLSSVVTVPSSSLGTQTYICNVNHKPSNTKVDKKVEPKSCDKTHTCPPCPAPELLAGPDVFLFPPKPKDTLMISRTPEVTCVVVDVSHEDPEVKFNWYVDGVEVHNAKTKPREEQYNSTYRVVSVLTVLHQDWLNGKEYKCKVSNKALPLPEEKTISKAKGQPREPQVYTLPPSREEMTKNQVSLTCLVKGFYPSDIAVEWESNGQPENNYKTTPPVLDSDGSFFLYSKLTVDKSRWQQGNVFSCSVLHEALHSHYTQKSLSLSPGK light: DIQMTQSPSSLSASVGDTVTITCQANGYLNWYQQRRGKAPKLLIYDGSKLERGVPSRFSGRRWGQEYNLTINNLQPEDIATYFCQVYEFVVPGTRLDLKRTVAAPSVFIFPPSDEQLKSGTASVVCLLNNFYPREAKVQWKVDNALQSGNSQESVTEQDSKDSTYSLSSTLTLSKADYEKHKVYACEVTHQGLSSPVTKSFNRGEC",0.06,0.84,0.31,0.7
"1.20.1-1 (antibody, human IgG1, kappa) heavy: QVQLLQSGAAVTKPGASVRVSCEASGYNIRDYFIHWWRQAPGQGLQWVGWINPKTGQPNNPRQFQGRVTMTRHASWDFDTFSFYMDLKALRSDDTAVYFCARQRSDYWDFDVWGSGTQVTVSSASTKGPSVFPLAPSSKSTSGGTAALGCLVKDYFPEPVTVSWNSGALTSGVHTFPAVLQSSGLYSLSSVVTVPSSSLGTQTYICNVNHKPSNTKVDKKVEPKSCDKTHTCPPCPAPELLAGPDVFLFPPKPKDTLMISRTPEVTCVVVDVSHEDPEVKFNWYVDGVEVHNAKTKPREEQYNSTYRVVSVLTVLHQDWLNGKEYKCKVSNKALPLPEEKTISKAKGQPREPQVYTLPPSREEMTKNQVSLTCLVKGFYPSDIAVEWESNGQPENNYKTTPPVLDSDGSFFLYSKLTVDKSRWQQGNVFSCSVLHEALHSHYTQKSLSLSPGK light: DIQMTQSPSSLSASVGDTVTITCQANGYLNWYQQRRGKAPKLLIYDGSKLERGVPSRFSGRRWGQEYNLTINNLQPEDIATYFCQVYEFVVPGTRLDLKRTVAAPSVFIFPPSDEQLKSGTASVVCLLNNFYPREAKVQWKVDNALQSGNSQESVTEQDSKDSTYSLSSTLTLSKADYEKHKVYACEVTHQGLSSPVTKSFNRGEC",0.06,0.89,0.91,0.8
"1.15.1-1 (antibody, human IgG1, kappa) heavy: QVQLLQSGAAVTKPGASVRVSCEASGYNIRDYFIHWWRQAPGQGLQWVGWINPKWGQPNNPRQFQGRVSLTRHASWDFDTFSFYMDLKALRSDDTAVYFCARQRSDYWDFDVWGSGTQVTVSSASTKGPSVFPLAPSSKSTSGGTAALGCLVKDYFPEPVTVSWNSGALTSGVHTFPAVLQSSGLYSLSSVVTVPSSSLGTQTYICNVNHKPSNTKVDKKVEPKSCDKTHTCPPCPAPELLAGPDVFLFPPKPKDTLMISRTPEVTCVVVDVSHEDPEVKFNWYVDGVEVHNAKTKPREEQYNSTYRVVSVLTVLHQDWLNGKEYKCKVSNKALPLPEEKTISKAKGQPREPQVYTLPPSREEMTKNQVSLTCLVKGFYPSDIAVEWESNGQPENNYKTTPPVLDSDGSFFLYSKLTVDKSRWQQGNVFSCSVLHEALHSHYTQKSLSLSPGK light: DIQMTQSPSSLSASVGDTVTITCQANGYLNWYQQRRGKAPKLLIYDGSKLERGVPSRFSGRRWGQEYNLTINNLQPEDIATYFCQVYEFVVPGTRLDLKRTVAAPSVFIFPPSDEQLKSGTASVVCLLNNFYPREAKVQWKVDNALQSGNSQESVTEQDSKDSTYSLSSTLTLSKADYEKHKVYACEVTHQGLSSPVTKSFNRGEC",0.06,0.87,1.24,1.38
"1.19.1-1 (antibody, human IgG1, kappa) heavy: QVQLLQSGAAVTKPGASVRVSCEASGYNIRDYFIHWWRQAPGQGLQWVGWINPKTGQPNNPRQFQGRVTLTRHASWDFDTFSFYMDLKALRSDDTAVYFCARQRSDYWDFDVWGSGTQVTVSSASTKGPSVFPLAPSSKSTSGGTAALGCLVKDYFPEPVTVSWNSGALTSGVHTFPAVLQSSGLYSLSSVVTVPSSSLGTQTYICNVNHKPSNTKVDKKVEPKSCDKTHTCPPCPAPELLAGPDVFLFPPKPKDTLMISRTPEVTCVVVDVSHEDPEVKFNWYVDGVEVHNAKTKPREEQYNSTYRVVSVLTVLHQDWLNGKEYKCKVSNKALPLPEEKTISKAKGQPREPQVYTLPPSREEMTKNQVSLTCLVKGFYPSDIAVEWESNGQPENNYKTTPPVLDSDGSFFLYSKLTVDKSRWQQGNVFSCSVLHEALHSHYTQKSLSLSPGK light: DIQMTQSPSSLSASVGDTVTITCQANGYLNWYQQRRGKAPKLLIYDGSKLERGVPSRFSGRRWGQEYNLTINNLQPEDIATYFCQVYEFVVPGTRLDLKRTVAAPSVFIFPPSDEQLKSGTASVVCLLNNFYPREAKVQWKVDNALQSGNSQESVTEQDSKDSTYSLSSTLTLSKADYEKHKVYACEVTHQGLSSPVTKSFNRGEC",0.06,0.85,0.96,0.93
"1.14.17-1 (antibody, human IgG1, kappa, V domains shown) VH: QVQLLQSGAAVTKPGASVRVSCEASGYNIRDYFMHWVRQAPGQGLQWVGWINPKTGQPNNPRQFQGRVSLTRHASWDFDTFSAYMDLKALRSDDTAVYFCARQRSDYWDFDVWGSGTQVTVSS VL: DIQMTQSPSSLSASVGDTVTITCQANGYLNWYQQRRGKAPKLLIYDGSKLERGVPSRFSGRRWGQEYNLTINNLQPEDIATYFCQVYEFFGPGTRLDLKR",0.1,0.89,0.24,0.43
"1.13.17-1 (antibody, human IgG1, kappa, V domains shown) VH: QVQLLQSGAAVTKPGASVRVSCEASGYNIRDYFMHWVRQAPGQGLQWVGWINPKTGQPNNPRQFQGRVSLTRHASWDFDTFSFYMDLKALRSDDTAVYFCARQRSDYWDFDVWGSGTQVTVSS VL: DIQMTQSPSSLSASVGDTVTITCQANGYLNWYQQRRGKAPKLLIYDGSKLERGVPSRFSGRRWGQEYNLTINNLQPEDIATYFCQVYEFFGPGTRLDLKR",0.06,1.02,0.69,0.78
"1.18.1-1 (antibody, human IgG1, kappa) heavy: QVQLLQSGAAVTKPGASVRVSCEASGYNIRDYFIHWWRQAPGQGLQWVGWINPKHGQPNNPRQFQGRVSLTRHASWDFDTFSFYMDLKALRSDDTAVYFCARQRSDYWDFDVWGSGTQVTVSSASTKGPSVFPLAPSSKSTSGGTAALGCLVKDYFPEPVTVSWNSGALTSGVHTFPAVLQSSGLYSLSSVVTVPSSSLGTQTYICNVNHKPSNTKVDKKVEPKSCDKTHTCPPCPAPELLAGPDVFLFPPKPKDTLMISRTPEVTCVVVDVSHEDPEVKFNWYVDGVEVHNAKTKPREEQYNSTYRVVSVLTVLHQDWLNGKEYKCKVSNKALPLPEEKTISKAKGQPREPQVYTLPPSREEMTKNQVSLTCLVKGFYPSDIAVEWESNGQPENNYKTTPPVLDSDGSFFLYSKLTVDKSRWQQGNVFSCSVLHEALHSHYTQKSLSLSPGK light: DIQMTQSPSSLSASVGDTVTITCQANGYLNWYQQRRGKAPKLLIYDGSKLERGVPSRFSGRRWGQEYNLTINNLQPEDIATYFCQVYEFVVPGTRLDLKRTVAAPSVFIFPPSDEQLKSGTASVVCLLNNFYPREAKVQWKVDNALQSGNSQESVTEQDSKDSTYSLSSTLTLSKADYEKHKVYACEVTHQGLSSPVTKSFNRGEC",0.07,0.97,1.36,1.18
